What follows are sequences tested on MS2 coat protein (assay: apparent KD of MS2 coat protein; designed switch direction (-1 OFF switch, 1 ON switch): -1; higher = weaker reporter binding). Settings: Eterna round: R98; input ligand: FMN 200 uM.
Procedure: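 RNA-MaP: designed FMN/MS2 RNA switches (84 nt design region) are transcribed on-chip within common flanks and titrated with SNAP-549-labelled MS2 coat protein (about 1-3000 nM) in 100 mM Tris pH 7.5, 80 mM KCl, 4 mM MgCl2, without or with 200 uM FMN. Median apparent KD per design; activation ratio = KD,OFF / KD,ON.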

Sequence | apparent KD of MS2 coat protein [nM]
UUCUGUGCCCAAAGUUAAAGCACAUGAGGAUCACCCAUGUGAAAGGAUAUGUGGCAUGUAAUGUUAUAGAAGGUUCACAAUCAA [Reveention] | 22.8
ACCAUUUACUAAUCCUCUAUACAUGAGGAUCACCCAUGUUCUGAGGAUAUCAUCGUUCGCCGCGUUGAGAAGGCAGAGCAUUCG [AriestionMod 1 - Jieux - Exclusion NG 3] | 40.8
UAUAUAAUUAAGAGCUGGUCCAAAACAUGAGGAUCACCCAUGUAGGAUAUCAGCACGAUAAGUGCUGAGAAGGACAACCAGCUC [Denovo 85] | 15.2
GAGGACUGUAAUAAUGUAGAAAUACAUGAGGAUCACCCAUGUAAGGAUAUCGUCAGGAAUACUGACGAGAAGGUACAUCAGUCC [Exclusion NG 3/10-A2] | 24.8
UAUAUAUAGGCAGGAUAUACAUGUAUAUAUAAUAUAUUAUAUAUUAUUACAUGAGGAUCACCCAUGUAGAAGGGCCAUAAUAUA [LRO035_Exclusion NG 2] | 52.7

Same assay, conditions: Eterna round: R98; input ligand: none

Sequence | apparent KD of MS2 coat protein [nM]
UUCUGUGCCCAAAGUUAAAGCACAUGAGGAUCACCCAUGUGAAAGGAUAUGUGGCAUGUAAUGUUAUAGAAGGUUCACAAUCAA [Reveention] | 14.2
ACCAUUUACUAAUCCUCUAUACAUGAGGAUCACCCAUGUUCUGAGGAUAUCAUCGUUCGCCGCGUUGAGAAGGCAGAGCAUUCG [AriestionMod 1 - Jieux - Exclusion NG 3] | 26.8
UAUAUAAUUAAGAGCUGGUCCAAAACAUGAGGAUCACCCAUGUAGGAUAUCAGCACGAUAAGUGCUGAGAAGGACAACCAGCUC [Denovo 85] | 17.2
GAGGACUGUAAUAAUGUAGAAAUACAUGAGGAUCACCCAUGUAAGGAUAUCGUCAGGAAUACUGACGAGAAGGUACAUCAGUCC [Exclusion NG 3/10-A2] | 17.3
UAUAUAUAGGCAGGAUAUACAUGUAUAUAUAAUAUAUUAUAUAUUAUUACAUGAGGAUCACCCAUGUAGAAGGGCCAUAAUAUA [LRO035_Exclusion NG 2] | 30

— the supplement of paper PMC9170038
